The values that follow come from publication PMC9095892 (The Journal of Biological Chemistry, 2022).

The subject of data set [1] is Cc1cn([C@H]2C[C@H](O)[C@@H](COP(=O)(O)OP(=O)(O)O[C@H]3O[C@H](C)C(=O)[C@H](O)[C@H]3O)O2)c(=O)[nH]c1=O. Put plainly: purified protein. As to conditions: pH 7.5.
The data set “crystal structure” concerns the molecule itself. Description: crystal structure.

The Km is the concentration of substrate that gives half-maximal velocity. What is called kcat/Km is the second-order rate constant that governs catalysis at low substrate concentration. Turning to “RmlC (EcRmlC; E. coli RfbC) (Escherichia coli K-12)”, in data set [1], the Km was 830 ± 40 µM and the kcat/Km was 6600 ± 200 M⁻¹ s⁻¹.
For the molecule StrM (SgStrM) (Streptomyces griseus), in data set [1], the Km was found to be 600 ± 40 µM and the kcat/Km stood at 9100 ± 400 M⁻¹ s⁻¹.
For “EvaD (AoEvaD) (Amycolatopsis orientalis)” the same measures were 632 ± 98 µM and 630 ± 70 M⁻¹ s⁻¹.

B1: Streptomyces griseus StrM (TDP-sugar 3'',5''-epimerase, RmlC ortholog) (enzyme, UniProt P29783 1-200, looked up)
chain: MRPLSVQGAWLSETRAFADDRGEFQELYSARSLRGALGYDPGVAQVNRSVSRRGVLRGVHFAQLPPSQAKYVTCLSGAVLDVVVDIRTGSPTYRAWEAVRLDDPHRSLYVEAGLGHSFMALTDDAVVVYLTSQGYAAGREHGVHPLDPDLGIAWPDGIEPVLSEKDRQAPGIAEMERRGLLPDYEECLAFRRSLCERGTG
notes: also called SgStrM
B1: the binding result in the data set “crystal structure” is listed as “binds”.
